Measured values from the supplement of paper PMC10567573.

B1: MATN2 (parent)
chain: VNVPGSFVCQCYSGYALAEDGKRC
B2: SOAT1 (parent)
chain: VYYIFERLCAPLFRNIKQEPFSAR

Variants of: B1
Assay: protein stability index of a GFP-peptide fusion (GPS, HEK-293T) (PSI 1-6); higher = more stable
Conditions: c terminus: a fixed tail appended
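Also: lentivirally expressed fusions sorted by FACS into six bins by GFP to DsRed ratio, PSI derived from sequencing read proportions per bin multiplied by bin number.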

First: VNVPGTFVCQCYSGYALAEDGKRC [S6T]
Second: VNVPGNFVCQCYSGYALAEDGKRC [S6N]
The protein stability index of the first is higher: 2.12 for the first, 1.43 for the second.

Going from VNVPGRFVCQCYSGYALAEDGKRC [S6R] to VNVPGVFVCQCYSGYALAEDGKRC [S6V], the protein stability index falls from 3.39 to 1.84.

First: VNVPGEFVCQCYSGYALAEDGKRC [S6E]
Second: VNVPGGFVCQCYSGYALAEDGKRC [S6G]
The protein stability index of the first is higher: 2.67 for the first, 1.47 for the second.

Compared with VNVPGFFVCQCYSGYALAEDGKRC [S6F], VFVPGSFVCQCYSGYALAEDGKRC [N2F] is lower in protein stability index: 3.53 for the first, 2.64 for the second.

Compared with VKVPGSFVCQCYSGYALAEDGKRC [N2K], VWVPGSFVCQCYSGYALAEDGKRC [N2W] is higher in protein stability index: 1.38 for the first, 1.79 for the second.

First: VMVPGSFVCQCYSGYALAEDGKRC [N2M]
Second: VEVPGSFVCQCYSGYALAEDGKRC [N2E]
The protein stability index of the first is lower: 1.71 for the first, 3.38 for the second.

Compared with VSVPGSFVCQCYSGYALAEDGKRC [N2S], VLVPGSFVCQCYSGYALAEDGKRC [N2L] is higher in protein stability index: 1.82 for the first, 2.28 for the second.

Going from VVVPGSFVCQCYSGYALAEDGKRC [N2V] to VDVPGSFVCQCYSGYALAEDGKRC [N2D], the protein stability index rises from 1.25 to 2.19.

Going from VTVPGSFVCQCYSGYALAEDGKRC [N2T] to VGVPGSFVCQCYSGYALAEDGKRC [N2G], the protein stability index falls from 2.35 to 1.89.

First: VYVPGSFVCQCYSGYALAEDGKRC [N2Y]
Second: VHVPGSFVCQCYSGYALAEDGKRC [N2H]
The protein stability index of the first is lower: 1.41 for the first, 1.97 for the second.

First: VIVPGSFVCQCYSGYALAEDGKRC [N2I]
Second: VQVPGSFVCQCYSGYALAEDGKRC [N2Q]
The protein stability index of the first is lower: 1.75 for the first, 2.28 for the second.

Going from VPVPGSFVCQCYSGYALAEDGKRC [N2P] to VAVPGSFVCQCYSGYALAEDGKRC [N2A], the protein stability index falls from 2.75 to 1.9.

VCVPGSFVCQCYSGYALAEDGKRC [N2C] gave a protein stability index of 2.12.

Variants of: B2
Assay: as above
Conditions: c terminus: a fixed tail appended

First: VYYIFERLCWPLFRNIKQEPFSAR [A10W]
Second: VYYIFERLCMPLFRNIKQEPFSAR [A10M]
The protein stability index of the first is higher: 2.4 for the first, 1.39 for the second.

Going from VYYIFERLCNPLFRNIKQEPFSAR [A10N] to VYYIEERLCAPLFRNIKQEPFSAR [F5E], the protein stability index falls from 3.54 to 2.49.

Compared with VYYIDERLCAPLFRNIKQEPFSAR [F5D], VYYLFERLCAPLFRNIKQEPFSAR [I4L] is higher in protein stability index: 1.95 for the first, 2.64 for the second.

Compared with VYYMFERLCAPLFRNIKQEPFSAR [I4M], HYYIFERLCAPLFRNIKQEPFSAR [V1H] is lower in protein stability index: 3.78 for the first, 1.41 for the second.

Compared with MYYIFERLCAPLFRNIKQEPFSAR [V1M], IYYIFERLCAPLFRNIKQEPFSAR [V1I] is lower in protein stability index: 2.28 for the first, 1.82 for the second.

First: AYYIFERLCAPLFRNIKQEPFSAR [V1A]
Second: DYYIFERLCAPLFRNIKQEPFSAR [V1D]
The protein stability index of the first is higher: 1.74 for the first, 1.44 for the second.

First: LYYIFERLCAPLFRNIKQEPFSAR [V1L]
Second: VYYIFERLCAPLFRLIKQEPFSAR [N15L]
The protein stability index of the first is lower: 2.5 for the first, 2.75 for the second.

Compared with VYYIFERLCAPLFREIKQEPFSAR [N15E], VYYIFERLCAPLFRHIKQEPFSAR [N15H] is lower in protein stability index: 3.52 for the first, 2.86 for the second.

First: VYYIFERLCAPLFRNIKQEPFSAN [R24N]
Second: VYYIFERLCAPLFRNIKQEPFSAE [R24E]
The protein stability index of the first is higher: 4.22 for the first, 3.4 for the second.

Going from VYYIFERLCAPLFRNIKQEPFSAK [R24K] to VYYIFERLCAPLFRNIKQEPFSAV [R24V], the protein stability index rises from 2.42 to 2.57.

First: VYYIFDRLCAPLFRNIKQEPFSAR [E6D]
Second: VYYIFCRLCAPLFRNIKQEPFSAR [E6C]
The protein stability index of the first is lower: 3 for the first, 3.08 for the second.

Compared with VYYIFPRLCAPLFRNIKQEPFSAR [E6P], VYYIFLRLCAPLFRNIKQEPFSAR [E6L] is higher in protein stability index: 1.83 for the first, 4.01 for the second.

VYYIFTRLCAPLFRNIKQEPFSAR [E6T] and VYYIFERLCAPLFRNLKQEPFSAR [I16L] are the same in protein stability index: 2.61 for the first, 2.61 for the second.

First: VYYIFERLCAPLFRNYKQEPFSAR [I16Y]
Second: VYYIFERLCAPLFRNAKQEPFSAR [I16A]
The protein stability index of the first is higher: 2.17 for the first, 1.91 for the second.

Going from VYYIFERLCAPCFRNIKQEPFSAR [L12C] to VYYIFERLCAPLFRNIKQHPFSAR [E19H], the protein stability index falls from 2.21 to 1.93.

First: VYYIFERLCAPLFRNIKQNPFSAR [E19N]
Second: VYYIFERLCAPLFRNIKQDPFSAR [E19D]
The protein stability index of the first is lower: 1.47 for the first, 2.08 for the second.

Compared with VYYIFERLCAPLFRNIKQAPFSAR [E19A], VYYIFERLCAPLFRNIKQEPFYAR [S22Y] is higher in protein stability index: 2.12 for the first, 3.56 for the second.

Compared with VYYIFERLCAPLFRNIKQEPFMAR [S22M], VYYIFERLCAPLFRNIKQEPFAAR [S22A] is lower in protein stability index: 3.1 for the first, 2.65 for the second.

Compared with VYYIFERLCAPLFRNIKWEPFSAR [Q18W], VYYIFERLCAPLFRNIKDEPFSAR [Q18D] is higher in protein stability index: 2.6 for the first, 2.9 for the second.

Going from VYGIFERLCAPLFRNIKQEPFSAR [Y3G] to VYKIFERLCAPLFRNIKQEPFSAR [Y3K], the protein stability index rises from 1.22 to 2.5.

Compared with VYYIFERLCAPLFTNIKQEPFSAR [R14T], VYYIFERLCAPLFPNIKQEPFSAR [R14P] is lower in protein stability index: 3.18 for the first, 2.33 for the second.

Going from VYYIFERLCAPLFCNIKQEPFSAR [R14C] to VYYIFERLCAPLNRNIKQEPFSAR [F13N], the protein stability index rises from 2.71 to 3.57.

Going from VYYIFERLCAPLRRNIKQEPFSAR [F13R] to VYYIFERICAPLFRNIKQEPFSAR [L8I], the protein stability index falls from 4.31 to 1.62.

Compared with VYYIFERECAPLFRNIKQEPFSAR [L8E], VYYIFERKCAPLFRNIKQEPFSAR [L8K] is lower in protein stability index: 3.97 for the first, 3.25 for the second.

First: VYYIFERTCAPLFRNIKQEPFSAR [L8T]
Second: VYYIFERLCAPLFRNIKQEPFSWR [A23W]
The protein stability index of the first is lower: 2 for the first, 3.89 for the second.

Compared with VYYIFERLCAPLFRNIKQEPFSLR [A23L], VYYIFERLCAPLFRNIKQEPFSTR [A23T] is lower in protein stability index: 2.55 for the first, 1.42 for the second.

First: VYYIFERLCAPLFRNIKQEPFSSR [A23S]
Second: VYYIFERLCAPLFRNIKQEPFSNR [A23N]
The protein stability index of the first is higher: 2.8 for the first, 2.53 for the second.

Compared with VSYIFERLCAPLFRNIKQEPFSAR [Y2S], VQYIFERLCAPLFRNIKQEPFSAR [Y2Q] is higher in protein stability index: 1.87 for the first, 2.42 for the second.

Going from VTYIFERLCAPLFRNIKQEPFSAR [Y2T] to VPYIFERLCAPLFRNIKQEPFSAR [Y2P], the protein stability index falls from 2.97 to 1.44.

Going from VAYIFERLCAPLFRNIKQEPFSAR [Y2A] to VYYIFERLFAPLFRNIKQEPFSAR [C9F], the protein stability index falls from 2.52 to 1.95.

Compared with VYYIFERLCASLFRNIKQEPFSAR [P11S], VYYIFERLCALLFRNIKQEPFSAR [P11L] is higher in protein stability index: 1.57 for the first, 1.89 for the second.

First: VYYIFERLCAPLFRNIDQEPFSAR [K17D]
Second: VYYIFERLCAPLFRNICQEPFSAR [K17C]
The protein stability index of the first is lower: 1.76 for the first, 4.42 for the second.

First: VYYIFETLCAPLFRNIKQEPFSAR [R7T]
Second: VYYIFESLCAPLFRNIKQEPFSAR [R7S]
The protein stability index of the first is lower: 1.74 for the first, 4.56 for the second.

Going from VYYIFERLCAPLFRNIKQELFSAR [P20L] to VYYIFERLCAPLFRNIKQESFSAR [P20S], the protein stability index falls from 2.48 to 1.36.

In the case of VYYIFERLCAPLFRNIKQEMFSAR [P20M], the protein stability index is reported as 2.49.
